Results reported in IntAct's records for PubMed 19487680.

Key:
[1] = molecular target: rar1_arath RAR1 (UniProt Q9SE33)
[2] = molecular target: sgt1b_arath SGT1B (UniProt Q9SUT5)
Sequence of sgt1b_arath SGT1B (Q9SUT5 whole entry): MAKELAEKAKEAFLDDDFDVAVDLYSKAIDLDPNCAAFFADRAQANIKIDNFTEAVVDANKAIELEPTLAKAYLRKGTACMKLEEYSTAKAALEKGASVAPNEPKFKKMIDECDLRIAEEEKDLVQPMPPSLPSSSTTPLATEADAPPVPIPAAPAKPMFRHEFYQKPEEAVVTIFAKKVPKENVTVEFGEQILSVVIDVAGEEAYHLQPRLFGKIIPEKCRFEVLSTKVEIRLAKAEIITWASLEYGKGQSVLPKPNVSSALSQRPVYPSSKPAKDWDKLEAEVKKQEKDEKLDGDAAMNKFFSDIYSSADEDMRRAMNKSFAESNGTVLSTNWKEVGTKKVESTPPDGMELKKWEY

Sequence of rar1_arath RAR1 (Q9SE33 whole entry): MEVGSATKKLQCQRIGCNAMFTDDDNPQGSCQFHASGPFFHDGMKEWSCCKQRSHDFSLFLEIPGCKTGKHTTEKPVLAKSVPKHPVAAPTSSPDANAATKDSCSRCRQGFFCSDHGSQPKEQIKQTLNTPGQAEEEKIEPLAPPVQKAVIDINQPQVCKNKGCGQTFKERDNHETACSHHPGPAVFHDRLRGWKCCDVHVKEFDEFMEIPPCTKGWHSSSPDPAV
Sequence of Heat shock protein 90-2 (Arabidopsis thaliana (Mouse-ear cress)), P55737 D80N (P55737 whole entry D80N): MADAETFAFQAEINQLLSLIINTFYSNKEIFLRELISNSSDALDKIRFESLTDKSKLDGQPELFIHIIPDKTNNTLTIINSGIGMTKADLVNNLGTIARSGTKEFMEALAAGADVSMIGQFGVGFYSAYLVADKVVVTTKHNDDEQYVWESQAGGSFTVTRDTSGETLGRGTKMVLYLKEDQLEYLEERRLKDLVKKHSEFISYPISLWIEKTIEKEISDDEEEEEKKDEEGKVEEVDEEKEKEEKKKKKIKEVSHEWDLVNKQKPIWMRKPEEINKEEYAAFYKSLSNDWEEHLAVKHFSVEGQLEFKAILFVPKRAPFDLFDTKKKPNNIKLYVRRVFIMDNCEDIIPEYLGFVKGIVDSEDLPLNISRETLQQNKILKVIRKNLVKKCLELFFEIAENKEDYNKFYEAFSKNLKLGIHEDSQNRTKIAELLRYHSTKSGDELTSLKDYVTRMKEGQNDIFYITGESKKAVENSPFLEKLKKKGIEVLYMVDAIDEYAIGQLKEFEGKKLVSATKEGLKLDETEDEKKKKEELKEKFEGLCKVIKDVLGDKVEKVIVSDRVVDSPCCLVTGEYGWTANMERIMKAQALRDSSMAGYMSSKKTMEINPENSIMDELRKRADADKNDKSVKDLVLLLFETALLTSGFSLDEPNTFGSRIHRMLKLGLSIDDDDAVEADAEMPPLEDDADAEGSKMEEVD
Sequence of Heat shock protein 90-2 (Arabidopsis thaliana (Mouse-ear cress)), P55737 A42T (P55737 whole entry A42T): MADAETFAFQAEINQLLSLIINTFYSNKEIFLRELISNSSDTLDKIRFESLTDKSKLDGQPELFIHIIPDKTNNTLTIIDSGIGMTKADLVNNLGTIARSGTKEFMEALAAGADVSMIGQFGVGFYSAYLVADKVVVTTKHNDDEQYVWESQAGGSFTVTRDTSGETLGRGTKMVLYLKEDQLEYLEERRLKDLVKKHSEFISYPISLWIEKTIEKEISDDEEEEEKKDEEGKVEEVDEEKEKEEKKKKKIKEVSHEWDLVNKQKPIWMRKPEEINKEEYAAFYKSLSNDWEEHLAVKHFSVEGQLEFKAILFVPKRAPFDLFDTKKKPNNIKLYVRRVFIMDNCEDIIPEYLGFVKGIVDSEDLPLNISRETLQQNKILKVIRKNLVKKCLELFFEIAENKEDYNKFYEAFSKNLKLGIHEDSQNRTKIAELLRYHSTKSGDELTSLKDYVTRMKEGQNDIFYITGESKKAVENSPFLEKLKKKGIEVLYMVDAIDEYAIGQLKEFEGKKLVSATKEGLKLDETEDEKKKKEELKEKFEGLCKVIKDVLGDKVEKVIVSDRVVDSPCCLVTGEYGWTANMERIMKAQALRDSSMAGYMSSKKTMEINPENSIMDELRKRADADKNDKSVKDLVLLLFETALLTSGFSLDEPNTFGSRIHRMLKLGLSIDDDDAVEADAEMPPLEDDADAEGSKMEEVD
Sequence of Heat shock protein 90-2 (Arabidopsis thaliana (Mouse-ear cress)), P55737 G95E (P55737 whole entry G95E): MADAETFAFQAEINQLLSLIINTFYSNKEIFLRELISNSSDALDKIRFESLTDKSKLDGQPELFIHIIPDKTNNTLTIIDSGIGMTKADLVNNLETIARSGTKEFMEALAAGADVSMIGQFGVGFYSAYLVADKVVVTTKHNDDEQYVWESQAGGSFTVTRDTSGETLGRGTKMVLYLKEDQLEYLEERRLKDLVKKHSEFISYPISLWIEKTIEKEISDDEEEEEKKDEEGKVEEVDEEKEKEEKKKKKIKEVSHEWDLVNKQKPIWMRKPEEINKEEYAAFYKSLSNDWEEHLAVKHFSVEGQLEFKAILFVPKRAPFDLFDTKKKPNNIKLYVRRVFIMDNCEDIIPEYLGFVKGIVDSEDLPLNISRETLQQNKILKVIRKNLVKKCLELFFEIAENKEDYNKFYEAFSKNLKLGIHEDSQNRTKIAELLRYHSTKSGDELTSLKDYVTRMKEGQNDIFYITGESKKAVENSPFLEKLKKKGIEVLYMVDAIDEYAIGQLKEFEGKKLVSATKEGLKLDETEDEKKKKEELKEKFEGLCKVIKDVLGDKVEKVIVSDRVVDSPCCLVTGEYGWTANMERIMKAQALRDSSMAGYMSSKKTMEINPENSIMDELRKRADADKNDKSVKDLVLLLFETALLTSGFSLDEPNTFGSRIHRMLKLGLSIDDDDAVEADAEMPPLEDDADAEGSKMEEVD
Sequence of Heat shock protein 90-2 (Arabidopsis thaliana (Mouse-ear cress)), P55737 R337C (P55737 whole entry R337C): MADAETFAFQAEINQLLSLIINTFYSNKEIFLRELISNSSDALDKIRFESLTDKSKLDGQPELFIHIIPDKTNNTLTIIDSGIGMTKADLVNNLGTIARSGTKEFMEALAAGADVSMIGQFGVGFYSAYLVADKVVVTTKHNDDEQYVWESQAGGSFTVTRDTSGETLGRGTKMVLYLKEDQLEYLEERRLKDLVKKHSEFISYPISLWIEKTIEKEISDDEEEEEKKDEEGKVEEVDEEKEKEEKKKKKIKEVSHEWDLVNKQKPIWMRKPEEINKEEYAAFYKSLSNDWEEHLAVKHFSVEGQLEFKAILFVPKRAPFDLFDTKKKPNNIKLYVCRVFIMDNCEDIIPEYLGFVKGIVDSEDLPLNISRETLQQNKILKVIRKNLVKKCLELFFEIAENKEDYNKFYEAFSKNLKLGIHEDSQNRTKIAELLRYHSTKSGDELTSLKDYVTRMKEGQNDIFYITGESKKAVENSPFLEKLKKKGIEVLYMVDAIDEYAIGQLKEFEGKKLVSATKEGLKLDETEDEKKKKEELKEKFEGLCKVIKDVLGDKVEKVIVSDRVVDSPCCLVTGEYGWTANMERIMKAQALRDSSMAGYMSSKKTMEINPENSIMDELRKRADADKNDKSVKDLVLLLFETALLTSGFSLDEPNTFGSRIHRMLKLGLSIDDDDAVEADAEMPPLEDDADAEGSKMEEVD
Sequence of Heat shock protein 90-2 (Arabidopsis thaliana (Mouse-ear cress)), P55737 S100F (P55737 whole entry S100F): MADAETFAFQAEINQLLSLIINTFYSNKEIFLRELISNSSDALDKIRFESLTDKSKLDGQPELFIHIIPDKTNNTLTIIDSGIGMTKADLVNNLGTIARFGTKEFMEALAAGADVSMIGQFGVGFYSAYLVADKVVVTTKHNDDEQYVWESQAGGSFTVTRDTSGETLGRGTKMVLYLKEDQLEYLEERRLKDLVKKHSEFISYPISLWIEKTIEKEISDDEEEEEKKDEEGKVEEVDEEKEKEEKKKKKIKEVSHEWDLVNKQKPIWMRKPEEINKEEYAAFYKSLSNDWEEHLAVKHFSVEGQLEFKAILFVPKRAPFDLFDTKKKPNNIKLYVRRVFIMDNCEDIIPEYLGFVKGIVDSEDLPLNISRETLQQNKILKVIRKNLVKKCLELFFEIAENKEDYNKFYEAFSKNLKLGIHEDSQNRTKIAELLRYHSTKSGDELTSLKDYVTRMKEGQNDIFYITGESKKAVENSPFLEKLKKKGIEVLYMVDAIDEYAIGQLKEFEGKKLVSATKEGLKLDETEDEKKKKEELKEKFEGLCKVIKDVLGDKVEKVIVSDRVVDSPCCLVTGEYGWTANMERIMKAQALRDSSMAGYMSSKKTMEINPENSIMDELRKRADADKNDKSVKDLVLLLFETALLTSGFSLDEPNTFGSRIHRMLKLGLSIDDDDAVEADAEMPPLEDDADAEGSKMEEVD

| effect of a mutation on the interaction [1] | effect of a mutation on the interaction [2] | Substance |
| --- | --- | --- |
| disrupting interaction strength | disrupting interaction strength | Heat shock protein 90-2 (Arabidopsis thaliana (Mouse-ear cress)), P55737 D80N |
| decreasing interaction strength | disrupting interaction strength | Heat shock protein 90-2 (Arabidopsis thaliana (Mouse-ear cress)), P55737 G95E |

Continued, substance first:

| Substance | effect of a mutation on the interaction [1] | effect of a mutation on the interaction [2] |
| --- | --- | --- |
| Heat shock protein 90-2 (Arabidopsis thaliana (Mouse-ear cress)), P55737 R337C | disrupting interaction strength | decreasing interaction strength |
| Heat shock protein 90-2 (Arabidopsis thaliana (Mouse-ear cress)), P55737 A42T | disrupting interaction strength | disrupting interaction strength |
| Heat shock protein 90-2 (Arabidopsis thaliana (Mouse-ear cress)), P55737 S100F | – | disrupting interaction strength |
